Substitutions are numbered along the chain they refer to.
B1: LG192C4 (VHH)
VHH: EVQLVESGGGLVQAGGSLRLSCEASGRTFSSYAMVGWFRQAPGKEREFVAAVTRWSGARTVYADSVKGRFTISRDNAENTVYLQMNSLKPEDTAVYTCAADSTNRNSGAVYYSWAYDYWGQGTQVTVSS
B2: LG192F2 (VHH)
VHH: EVQLVESGGGLVQAGGSLRLSCEASGRTFSPIAMGWFRQAPGKEREFVAVVTRWSGARTVYADSVKGRFTISRDNAENTVYLQMNSLKPEDTAVYTCAADSTNRNSGAIYYTWAYDYWGQGTQVTVSS
B3: LG191D3 (VHH)
VHH: EVQLVESGGGLVQAGGSLRLSCEASGRTYSRYGMGWFRQAPGKEREFVAAVSRLSGPRTVYADSVKGRFTISRDNAENTVYLQMNSLKPEDTAVYTCAAELTNRNSGAYYYAWAYDYWGQGTQVTVSS
B4: LG192C6 (VHH)
VHH: B2 VHH with F29E, S30R, P31Y, I32Q, S106R
B5: LG192H2 (VHH)
VHH: B2 VHH with P31N, I32Y, A57G, I109W, Y117H
B6: LG192H1 (VHH)
VHH: EVQLVESGGGLVQAGGSLRLSCAASGIIFSTNHMGWYRRAPGKQRELVGTINRGDSPYYADSVKGRFTISRDNAKNMVYLQMNSLKPEDTAVYYCNAGYIYWGQGTQVTVSS
B7: LG192A8 (VHH)
VHH: EVQLVESGGGLVQAGGSLRLSCAASERTVIAYTMGWFRRAPGKERDFVAAMNWNGGNTIYADSAKGRFTISRDNAKNTVYLQMNSLKAEDTAVYYCAARPRFWGSYEYDYWGQGTQVTVSS
B8: LG191E4 (VHH)
VHH: EVQLVESGGGLVQAGGSLRLSCAASGPTFSADTMGWFRQAPGKEREFVATIPWSGGIAYYSDSVKGRFTMSRDNAKNTVDLQMNSLKPEDTALYYCAGSSRIYIYSDSLSERSYDYWGQGTQVTVSS
B9: LG191B9 (VHH)
VHH: EVQLVESGGGLVQAGGSLRLSCAASGRTFSSSFMAWFRQVLGSDREFVGGISPGGRFTYYADSRKGRFTISGDNANNTVYLQMHSVKPEDTATYYCAADTQFSGYVPKETNEYDYWGQGTQVTVSS
B10: LG192B1 (VHH)
VHH: EVQLVESGGGLVQPGGSLRLSCAASGLTFRNYAIGWFRQAPGKEREGVSCINSGGSITDYLDSVKGRFAISRDNAKSTVYLQMNSLKPEDTAVYYCATDLTSSCPIYSGTDYWGKGTLVTVSS
B11: LG192C10 (VHH)
VHH: EVQLVESGGGLVQAGGSLRLSCAASEGYFRNYMVGWFRQAPGGERMFVAAISDTAYYADSVKGRFTISRDNAKNTVYLPMNSLKPEDTAVYYCAAAPKSWGTWPLVADTRSYHFWGQGTQVTVSS
B12: PMP8A1 (VHH)
VHH: EVQLVESGGGLVQPGGSLRVSCAASGFTFNDYIMGWFRQAPGKERMFIAAISGTGTIKYYGDLVRGRFTISRDNAKNTVYLRIDSLNPEDTAVYYCAARQDYGLGYRESHEYDYWGQGTQVTVSS
B13: PMP8B10 (VHH)
VHH: EVQLVESGGGLVQAGASLRLSCAASGLAFSRYAMGWFRQAPGKERESVAAISSSGDNIYYADSVKGQFTMSRDNAKSSVYLQMINLKPEDTAVYYCAATSPLFVASDYFEASRYGYWGQGTQVTVSS
B14: PMP13A1 (VHH)
VHH: EVQLVESGGGLVQPGGSLRLSCAASGLTLDYYALGWFRQAPGKEREGVSCISSADHSTTYADSVKGRFTISWDNAKNTVYLQMNSLKPEDTAVYYCAADPALGCYSGNYYPRYDYWGQGTQVTVSS
B15: PMP19E2 (VHH)
VHH: B14 VHH with A54S, S57T, A61T, V79L, N108S, Y115F
B16: PMP13B4 (VHH)
VHH: EVQLVESGGGLVQAGGSLRLSCAASGFTFDDYAIGWFRQAPGKEREAVSCISSSDGSTYYADSVKGRFTISSDNAKNMVYLQMNSLKPEDTAVYYCAADLLRTAVGCLDYRGTYYPRTTMDYRGKGTLVTVSS
B17: PMP13C1 (VHH)
VHH: EVQLVESGGGLVQPGGSLRLSCEASGFTWDYYVIGWFRQAPGKEREGLSCISSDGSTTYADSVKGRFTISRDNAKNTVYLQMNSLEPEDTAVYYCATDPALGCYSGSYYPRYDYWGQGTQVTVSS
B18: PMP13D1 (VHH)
VHH: EVQLVESGGGLVQPGGSLRLSCATSGFTEDYYVIGWFRQAPGKEREGVSCMSSSGDSTTYADSVKGRFTISRDNAKNMVYLQMTSLKPEDTAVYYCAADFALGCYSGSYYPRYDYWGQGTQVTVSS
B19: PMP13E12 (VHH)
VHH: EVQLVESGGGLVQAGGSLRLSCAASGRTFSRYIMGWFRQAPGKEREFVGAISRSGDITSFADFVKGRFTMSRDNAKNTLYLQMNSLEPEDTAVYSCAANSDTYYIYSDIVVPERYDYWGQGTQVTVSS
B20: PMP23E5 (VHH)
VHH: EVQLMESGGGLVQAGGSLRLSCAASGGTFSSYAMGWFRQAPGEERDFVAAIGWSGNSPYYAQFVKGRFTISRDNAKNTVHLQMNSLKPEDTAVYYCAAAHNTMGSDYEGYDYWGQGTQVTVSS
B21: PMP1B2 (VHH)
VHH: B8 VHH
B22: PMP1A2 (VHH)
VHH: EVQLVESGGGLVQAGGSLRLSCAASERTFSYYAMGWFRQAPGKEREFVATISRSGEWIYYKDAMKGRFTISRDNANNAVYLQMNSLQPEDTAIYYCAADSLGGFRSASDYYNTNTYAYWGQGTQVTVSS
B23: NC41v06 (VHH)
VHH: EVQLLESGGGLVQPGGSLRLSCAASGGSLSNYVLGWFRQAPGKGREFVAAINWRDDITIGPPNVEGRFTISRDNAKNTLYLQMNSLRPEDTAVYYCGAGTPLNPGAYIYDWSYDYWGQGTLVTVSS
B24: NC41 (VHH)
VHH: EVQLVESGGGLVQAGGSLSISCAASGGSLSNYVLGWFRQAPGKEREFVAAINWRGDITIGPPNVEGRFTISRDNAKNTGYLQMNSLAPDDTAVYYCGAGTPLNPGAYIYDWSYDYWGRGTQVTVSS
B25: NC41v17 (VHH)
VHH: B23 VHH with D55G, A75S

Tests used:
[1] = molecular target: T1, hRSV FTM- protein (membrane anchorless form of the fusion protein, 70 kDa) (human respiratory syncytial virus, UniProt P12568 26-524); experiment: SPR (Biacore T100), FTM- amine-coupled on CM5 chip, 1:1 Langmuir fit
T1 construct: extracellular domain

[2] = molecular target: T2, FTM-NN protein (membrane anchorless form of the Long fusion protein of hRSV, 70 kDa) (human respiratory syncytial virus, …, UniProt P12568 26-524); experiment: competition ELISA, periplasmic extract diluted 1:300, competitor 101F Fab
[3] = molecular target: T2, FTM-NN protein (membrane anchorless …); experiment: competition ELISA, periplasmic extract diluted 1:1000, competitor 101F Fab
[4] = molecular target: T2, FTM-NN protein (membrane anchorless …); experiment: ELISA, periplasmic extract on immobilised F protein; signal as fold over blank
[5] = molecular target: T2, FTM-NN protein (membrane anchorless …); experiment: competition ELISA, periplasmic extract diluted 1:100, competitor 101F Fab
[6] = molecular target: T3, FTM-NN (membrane anchorless form of the Long fusion protein, 70 kDa) (human respiratory syncytial virus, …, UniProt P12568 26-524); experiment: SPR (Biacore), Ftm-NN protein immobilized on chip, Nanobody as analyte
T3 construct: domain: membrane anchorless form of the fusion protein

Binder | Kd [1] | koff [1] | kon [1] | % Inhibition 101F Fab (1:300 PE) [2] | % Inhibition 101F Fab (1:1000 PE) [3] | Binding RSV-A, Fold blanc [4] | % Inhibition 101F Fab (1:100 PE) [5] | also measured
B1 | 7.47 nM | 0.00846 s⁻¹ | 1.13e+06 M⁻¹ s⁻¹ | – | – | – | – | –
B2 | 7.14 nM | 0.00577 s⁻¹ | 807000 M⁻¹ s⁻¹ | – | – | – | – | –
B3 | 2.05 nM | 0.00324 s⁻¹ | 1.59e+06 M⁻¹ s⁻¹ | – | – | – | – | –
B4 | 7 nM | 0.00808 s⁻¹ | 1.15e+06 M⁻¹ s⁻¹ | – | – | – | – | –
B5 | 15.4 nM | 0.0128 s⁻¹ | 829000 M⁻¹ s⁻¹ | – | – | – | – | –
B6 | 3.72 nM | 0.00611 s⁻¹ | 1.65e+06 M⁻¹ s⁻¹ | – | – | – | – | –
B7 | 2.91 nM | 0.000937 s⁻¹ | 322000 M⁻¹ s⁻¹ | – | – | – | – | –
B8 | 0.7 nM | 0.000208 s⁻¹ | 298000 M⁻¹ s⁻¹ | – | – | – | – | –
B9 | 25.4 nM | 0.00492 s⁻¹ | 194000 M⁻¹ s⁻¹ | – | – | – | – | –
B10 | 55.5 nM | 0.0127 s⁻¹ | 229000 M⁻¹ s⁻¹ | – | – | – | – | –
B11 | 3.49 nM | 0.000613 s⁻¹ | 175000 M⁻¹ s⁻¹ | – | – | – | – | –
B12 | – | – | – | 55% | 20% | 3.7 fold over blank | – | –
B13 | – | – | – | 31% | 6% | 3.5 fold over blank | 56% | –
B14 | – | – | – | 46% | 13% | 2.9 fold over blank | 74% | –
B15 | – | – | – | 27% | 5% | 3.5 fold over blank | 74% | –
B16 | – | – | – | 47% | 20% | 2.7 fold over blank | 82% | –
B17 | – | – | – | 37% | 9% | 3 fold over blank | 57% | –
B18 | – | – | – | 52% | 16% | 3.1 fold over blank | 78% | –
B19 | – | – | – | 28% | 8% | 3.7 fold over blank | 74% | –
B20 | – | – | – | 16% | – | 3.4 fold over blank | 37% | –
B21 | – | – | – | 58% | 25% | 3.8 fold over blank | 82% | –
B22 | – | – | – | 27% | 5% | 4 fold over blank | 82% | –
B23 | – | – | – | – | – | – | – | Kd [6]: 2.5 nM; koff [6]: 0.0048 s⁻¹; kon [6]: 2e+06 M⁻¹ s⁻¹
B24 | – | – | – | – | – | – | – | Kd [6]: 4 nM; koff [6]: 0.0067 s⁻¹; kon [6]: 1.7e+06 M⁻¹ s⁻¹
B25 | – | – | – | – | – | – | – | Kd [6]: 3.2 nM; koff [6]: 0.0059 s⁻¹; kon [6]: 1.9e+06 M⁻¹ s⁻¹
